# Data reported in patent US11384130B2, “Agent for promoting angiogenesis and methods and uses thereof” (Vasomune Therapeutics Inc., priority 2017, dated 2022).
# Tests used:
# Type in all cases: cell-based
# Conditions in all cases: positive control
# Tie2 receptor [1] = biological target: T1, Tie2 receptor (Rattus norvegicus, UniProt A0A8I5ZW61); experiment: Tie2 phosphorylation in primary rat glomerular endothelial cells
# T1 construct: host or cells: primary rat glomerular endothelial cells
# Method: Rat primary glomerular endothelial cells (Cell Biologics) were grown in Complete rat endothelial cell medium/w kit (Cell Biologics) in 20% O2, 5% CO2 and 37° C. humidified chamber and split 1:3 once reaching 80-90% confluency. To examine the activation of Tie2 by MPA-Br in rat kidney glomerular endothelial cells, 95-100% confluent cells were stimulated with indicated concentrations of the test agent in serum-containing media for 15 minutes. Human Ang-1 (R&D Systems) was used as positive control. Cell lysates were collected using lysis buffer IC12 (detailed above) recommended in Human phospho-Tie-2 ELISA kit (R&D Systems), tyrosine-phosphorylated Tie2 and total Tie2 were measured using ELISA (Human phospho-Tie2 and total-Tie2 ELISA kits, R&D Systems) with substitution of capture antibody validated for rat Tie2. Mouse anti-Tie2 antibody (BD Pharmingen™) and rabbit TEK polyclonal antibody (MyBioSource) were used as capture antibody in pTie2 and total Tie2 ELISA, respectively. The level of Tie2 phosphorylation for all treatment groups was then normalized to that of the no treatment group (NT, complete rat endothelial cell medium) in each experiment.
# Tie2 receptor [2] = biological target: T2, Tie2 receptor (Canis lupus familiaris, UniProt A0A8I3P3D4); experiment: Tie2 phosphorylation in primary canine aortic endothelial cells
# T2 construct: primary cultured endothelial cells derived from canine aorta; host or cells: primary canine aortic endothelial cells
# Method: Canine primary aortic endothelial cells (Cell Biologics) were grown in Complete canine endothelial cell medium/w kit (Cell Biologics) in 20% O2, 5% CO2 and 37° C. humidified chamber and split 1:3 once reaching 80-90% confluency. Tie2 activation studies performed on primary cynomolgus monkey glomerular endothelial cells were performed according to approaches detailed above for the rat primary glomerular endothelial cell studies.
# Tie2 receptor [3] = experiment: Tie2 phosphorylation in primary cynomolgus monkey glomerular endothelial cells
# Method: Primary cynomolgus monkey glomerular endothelial cells (Cell Biologics) were cultured according to details provided above for HMVEC^tert. Tie2 activation studies performed on primary cynomolgus monkey glomerular endothelial cells were performed according to approaches detailed above for the rat primary glomerular endothelial cell studies.
# T2 sequence (A0A8I3P3D4 entry or part of it): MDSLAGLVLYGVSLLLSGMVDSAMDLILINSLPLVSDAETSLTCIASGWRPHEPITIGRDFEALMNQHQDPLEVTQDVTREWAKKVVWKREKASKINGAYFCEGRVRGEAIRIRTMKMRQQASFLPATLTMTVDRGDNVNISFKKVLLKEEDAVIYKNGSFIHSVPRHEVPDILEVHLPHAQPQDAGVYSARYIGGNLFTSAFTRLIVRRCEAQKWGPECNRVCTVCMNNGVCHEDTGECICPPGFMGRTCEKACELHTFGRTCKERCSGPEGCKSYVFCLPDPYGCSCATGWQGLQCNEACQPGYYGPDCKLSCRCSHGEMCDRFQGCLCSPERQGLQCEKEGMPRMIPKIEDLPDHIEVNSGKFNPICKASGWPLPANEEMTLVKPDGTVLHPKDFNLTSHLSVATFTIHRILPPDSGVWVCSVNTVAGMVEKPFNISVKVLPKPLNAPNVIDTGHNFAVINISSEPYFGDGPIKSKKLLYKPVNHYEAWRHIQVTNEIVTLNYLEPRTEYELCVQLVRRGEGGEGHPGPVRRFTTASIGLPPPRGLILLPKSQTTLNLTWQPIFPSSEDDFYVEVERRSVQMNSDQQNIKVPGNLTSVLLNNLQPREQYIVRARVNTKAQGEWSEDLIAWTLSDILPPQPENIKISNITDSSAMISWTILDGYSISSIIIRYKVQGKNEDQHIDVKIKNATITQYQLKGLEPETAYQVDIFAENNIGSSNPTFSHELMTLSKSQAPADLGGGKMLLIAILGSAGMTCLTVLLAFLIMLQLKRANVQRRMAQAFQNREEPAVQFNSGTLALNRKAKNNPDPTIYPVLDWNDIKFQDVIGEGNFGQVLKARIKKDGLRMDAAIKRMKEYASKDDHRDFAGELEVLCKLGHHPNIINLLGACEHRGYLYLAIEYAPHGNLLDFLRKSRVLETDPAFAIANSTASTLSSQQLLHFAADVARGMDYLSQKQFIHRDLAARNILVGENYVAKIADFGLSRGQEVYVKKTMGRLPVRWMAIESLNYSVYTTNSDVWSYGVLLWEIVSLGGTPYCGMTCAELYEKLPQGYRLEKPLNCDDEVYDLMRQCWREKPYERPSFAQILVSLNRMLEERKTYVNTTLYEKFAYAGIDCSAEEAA
# T1 sequence (A0A8I5ZW61 20-1121): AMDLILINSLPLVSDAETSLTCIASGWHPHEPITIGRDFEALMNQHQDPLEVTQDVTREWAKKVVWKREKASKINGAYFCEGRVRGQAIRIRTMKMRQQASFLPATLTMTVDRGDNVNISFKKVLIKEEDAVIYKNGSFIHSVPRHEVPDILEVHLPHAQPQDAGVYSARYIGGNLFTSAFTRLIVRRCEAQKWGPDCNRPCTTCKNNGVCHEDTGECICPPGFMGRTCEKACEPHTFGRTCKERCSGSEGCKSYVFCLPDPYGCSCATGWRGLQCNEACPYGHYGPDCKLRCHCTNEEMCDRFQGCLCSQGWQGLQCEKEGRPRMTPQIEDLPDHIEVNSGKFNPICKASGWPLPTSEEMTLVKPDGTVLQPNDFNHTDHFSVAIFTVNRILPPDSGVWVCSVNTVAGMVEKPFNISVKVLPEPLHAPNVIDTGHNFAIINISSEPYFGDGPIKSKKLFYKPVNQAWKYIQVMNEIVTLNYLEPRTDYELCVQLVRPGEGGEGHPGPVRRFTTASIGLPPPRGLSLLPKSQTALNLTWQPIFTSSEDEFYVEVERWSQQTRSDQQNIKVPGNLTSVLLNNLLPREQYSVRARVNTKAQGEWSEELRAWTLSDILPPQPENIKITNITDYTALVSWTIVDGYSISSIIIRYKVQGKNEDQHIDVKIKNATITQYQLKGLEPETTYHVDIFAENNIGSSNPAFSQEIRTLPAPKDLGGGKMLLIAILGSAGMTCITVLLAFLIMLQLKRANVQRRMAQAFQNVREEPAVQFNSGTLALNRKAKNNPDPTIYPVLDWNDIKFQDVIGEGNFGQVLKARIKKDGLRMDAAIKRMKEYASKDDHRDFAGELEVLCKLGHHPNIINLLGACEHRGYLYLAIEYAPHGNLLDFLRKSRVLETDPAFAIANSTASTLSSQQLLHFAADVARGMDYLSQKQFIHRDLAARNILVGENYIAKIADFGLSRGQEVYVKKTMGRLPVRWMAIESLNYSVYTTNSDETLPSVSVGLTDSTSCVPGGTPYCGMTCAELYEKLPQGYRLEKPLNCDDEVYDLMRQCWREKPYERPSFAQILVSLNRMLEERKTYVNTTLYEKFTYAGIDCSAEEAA
molecule,measurement,setting,value
"human recombinant Ang1: human recombinant angiopoietin 1 (R&D Systems), positive control for Tie2 and MAPK activation (protein, UniProt Q15389 16-498, looked up) Angiopoietin-1: HIGCSNQRRSPENSGRRYNRIQHGQCAYTFILPEHDGNCRESTTDQYNTNALQRDAPHVEPDFSSQKLQHLEHVMENYTQWLQKLENYIVENMKSEMAQIQQNAVQNHTATMLEIGTSLLSQTAEQTRKLTDVETQVLNQTSRLEIQLLENSLSTYKLEKQLLQQTNEILKIHEKNSLLEHKILEMEGKHKEELDTLKEEKENLQGLVTRQTYIIQELEKQLNRATTNNSVLQKQQLELMDTVHNLVNLCTKEGVLLKGGKREEEKPFRDCADVYQAGFNKSGIYTIYINNMPEPKKVFCNMDVNGGGWTVIQHREDGSLDFQRGWKEYKMGFGNPSGEYWLGNEFIFAITSQRQYMLRIELMDWEGNRAYSQYDRFHIGNEKQNYRLYLKGHTGTAGKQSSLILHGADFSTKDADNDNCMCKCALMLTGGWWFDACGPSNLNGMFYTAGQNHGKLNGIKWHYFKGPSYSLRSTTMMIRPLDF",Tie2 phosphorylation compared to no treatment,Tie2 receptor [1],significant increase in baseline Tie2 phosphorylation
same,Tie2 phosphorylation compared to no treatment,Tie2 receptor [2],significant increase in baseline Tie2 phosphorylation
same,Tie2 phosphorylation compared to no treatment,Tie2 receptor [3],significant increase in baseline Tie2 phosphorylation
